Results from patent publication US5633227.
pKi: −log10 of the molar value.

Columns and labels:
[1] = molecular target: human mast cell tryptase purified from human lung (human) (UniProt Q15661); assay: GPK-AMC enzyme inhibition assay, Dixon plot, human lung tryptase
[2] = molecular target: human mast cell tryptase purified from human lung (human) (UniProt Q15661); assay: VIP assay (formation of Dns-VIP-(1-14)), Dixon plot, human lung tryptase
[3] = molecular target: human mast cell tryptase purified from human lung (human) (UniProt Q15661); assay: VIP assay (loss of full-length Dns-VIP), Dixon plot, human lung tryptase
[4] = molecular target: dansylated vasoactive intestinal peptide (Dns-VIP, 28 amino acids) (Homo sapiens (Human)) (UniProt P01282)

C-terminal domain of SLPI (amino acids 50-107), sequence (P03973 75-132 limits assumed): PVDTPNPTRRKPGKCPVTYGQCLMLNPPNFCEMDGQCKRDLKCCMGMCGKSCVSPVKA
N-terminal domain of SLPI (amino acids 1-49), sequence (P03973 26-74 limits assumed): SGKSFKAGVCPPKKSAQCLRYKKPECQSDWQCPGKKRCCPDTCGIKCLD
recombinant secretory leukocyte protease inhibitor (SLPI), sequence (P03973 26-132): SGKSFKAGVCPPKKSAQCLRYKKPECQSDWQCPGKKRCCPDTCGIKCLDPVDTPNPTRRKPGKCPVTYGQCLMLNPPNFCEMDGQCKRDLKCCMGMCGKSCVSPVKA

Row | pKi [1] | pKi [2] | pKi [3] | kcat/Km for the disappearance of full-length Dns-VIP (1-28), no addition [4] | Substance
1 | 6.54 | 6.89 |  |  | N-terminal domain of SLPI (amino acids 1-49) (from UniProt P03973)
2 | 8.32 | 8.80 |  |  | C-terminal domain of SLPI (amino acids 50-107) (from UniProt P03973)
3 |  |  | 8.10 |  | recombinant secretory leukocyte protease inhibitor (SLPI) (from UniProt P03973)
4 |  |  |  | 1.8e+07 M⁻¹ s⁻¹ | human mast cell tryptase purified from human lung (from UniProt Q15661) (enzyme)
